# Positions of bridges follow the written chain, without caps; N, C: chain ends. Non-standard residues stand in square brackets, D forms with d. Groups on a side chain read outwards from the residue. int‑CC7 = mannose-6-phosphonate M6PR ligand; tri‑GalNAc ASGPR ligand = not defined here; Bip = N[C@@H](Cc1ccc(-c2ccccc2)cc1)C(=O)O; NMeF = CN[C@@H](Cc1ccccc1)C(=O)O; Tic = O=C(O)[C@@H]1Cc2ccccc2CN1; int‑CC6 = not defined here; NMeA = CN[C@@H](C)C(=O)O; Sar = CNCC(=O)O
# T1: Purified FHR3 with C-terminal biotinylated Avitag (human, UniProt Q02985 19-330, biotin on the C-terminal Avitag)
# T1 construct: Immobilised on a NeutrAvidin NLC chip for SPR; also called complement factor H-related protein 3; hFHR3; not shown: C-terminal biotinylated Avitag
# T1 sequence (looked up): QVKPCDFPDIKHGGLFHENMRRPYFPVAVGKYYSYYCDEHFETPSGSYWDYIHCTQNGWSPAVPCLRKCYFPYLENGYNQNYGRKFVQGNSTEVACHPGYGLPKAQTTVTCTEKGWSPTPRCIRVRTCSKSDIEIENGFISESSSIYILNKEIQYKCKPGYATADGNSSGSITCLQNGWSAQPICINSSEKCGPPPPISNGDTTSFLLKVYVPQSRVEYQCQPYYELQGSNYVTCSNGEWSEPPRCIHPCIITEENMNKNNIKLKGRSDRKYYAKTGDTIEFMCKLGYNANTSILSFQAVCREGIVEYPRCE
# B1: Cyclic peptide compound (C15) (peptide)
# peptide: {CH2CO}-F[NMeF][NMeA]SLHW[NMeA]RKDRCG-NH2
# modifications: thioether N-13
# notes: also called FHR3 receptor ligand compound (C15)
# B2: Cyclic peptide compound (C16) (peptide)
# peptide: {CH2CO}-FR[NMeF]SVNY[Sar]RK[Tic]N[NMeF]CG-NH2
# modifications: thioether N-14
# SMILES: CC(C)[C@@H]1NC(=O)[C@H](CO)NC(=O)[C@H](Cc2ccccc2)N(C)C(=O)[C@H](CCCNC(=N)N)NC(=O)[C@H](Cc2ccccc2)NC(=O)CSC[C@@H](C(=O)NCC(N)=O)NC(=O)[C@H](Cc2ccccc2)N(C)C(=O)[C@H](CC(N)=O)NC(=O)[C@@H]2Cc3ccccc3CN2C(=O)[C@H](CCCCN)NC(=O)[C@H](CCCNC(=N)N)NC(=O)CN(C)C(=O)[C@H](Cc2ccc(O)cc2)NC(=O)[C@H](CC(N)=O)NC1=O
# notes: Synthetic cyclic peptide; also called FHR3 receptor ligand compound (C16)
# B3: Cyclic peptide compound (C14) (peptide)
# peptide: {CH2CO}-FR[NMeF]SVNYKRS[Tic]N[NMeF]CG-NH2
# modifications: thioether N-14
# SMILES: CC(C)[C@@H]1NC(=O)[C@H](CO)NC(=O)[C@H](Cc2ccccc2)N(C)C(=O)[C@H](CCCNC(=N)N)NC(=O)[C@H](Cc2ccccc2)NC(=O)CSC[C@@H](C(=O)NCC(N)=O)NC(=O)[C@H](Cc2ccccc2)N(C)C(=O)[C@H](CC(N)=O)NC(=O)[C@@H]2Cc3ccccc3CN2C(=O)[C@H](CO)NC(=O)[C@H](CCCNC(=N)N)NC(=O)[C@H](CCCCN)NC(=O)[C@H](Cc2ccc(O)cc2)NC(=O)[C@H](CC(N)=O)NC1=O
# notes: Synthetic cyclic peptide; also called FHR3 receptor ligand compound (C14)
# B4: Cyclic peptide compound (C12) (peptide)
# peptide: {CH2CO}-FR[NMeF]SKNY[Sar]RD[Tic]N[NMeF]CG-NH2
# modifications: thioether N-14; also: classes: D-residues
# notes: Synthetic cyclic peptide with non-natural residues; also called FHR3 receptor ligand compound (C12)
# B5: Cyclic peptide compound (C13) (peptide)
# peptide: {CH2CO}-FK[NMeA]SLHW[NMeA]RPDRCG-NH2
# modifications: thioether N-13
# SMILES: CC(C)C[C@@H]1NC(=O)[C@H](CO)NC(=O)[C@H](C)N(C)C(=O)[C@H](CCCCN)NC(=O)[C@H](Cc2ccccc2)NC(=O)CSC[C@@H](C(=O)NCC(N)=O)NC(=O)[C@H](CCCNC(=N)N)NC(=O)[C@H](CC(=O)O)NC(=O)[C@@H]2CCCN2C(=O)[C@H](CCCNC(=N)N)NC(=O)[C@H](C)N(C)C(=O)[C@H](Cc2c[nH]c3ccccc23)NC(=O)[C@H](Cc2c[nH]cn2)NC1=O
# notes: Synthetic cyclic peptide; also called FHR3 receptor ligand compound (C13)
# B6: Bifunctional compound (BFC-2) (other)
# peptide: {CH2CO}-FVPTT[Bip][NMeA][Bip][NMeA]EAPCGK([4‑formylbenzoyl-int‑CC6])-NH2
# modifications: thioether N-13; reading uncertain; also: 4-formylbenzoyl joined to int-CC6 as oxime
# B7: Bifunctional compound (BFC-4) (other)
# peptide: {CH2CO}-FVPTT[Bip][NMeA][Bip][NMeA]EAPCGK-NH2
# modifications: thioether N-13; not fully specified (residue 15); also: int-DD2 linker joined by two oximes to int-CC7
# B8: Cyclic peptide (C5) (peptide)
# peptide: {CH2CO}-FVPTT[Bip][NMeA][Bip][NMeA]EAPCGK(4‑oxopentanoyl)-NH2
# modifications: thioether N-13
# notes: also called PCSK9 ligand (C5); PCSK9 receptor ligand compound (C5)
# B9: Bifunctional compound (BFC-9) (other)
# peptide: {CH2CO}-FVPTT[Bip][NMeA][Bip][NMeA]EAPCGK([Lys(4-oxopentanoyl)-int‑CC7])-NH2
# modifications: thioether N-13; not fully specified; also: further groups not given here
# notes: BFC-8 and BFC-9 come from the same reaction of int-DD6 with int-CC7
# B10: Bifunctional compound (BFC-8) (other)
# peptide: {CH2CO}-FVPTT[Bip][NMeA][Bip][NMeA]EAPCGK([Lys(4-oxopentanoyl)-int‑CC7])-NH2
# modifications: thioether N-13; not fully specified; also: further groups not given here
# notes: as for B9
# Target: T1, Purified FHR3 with C-terminal …
# Assay: SPR, ProteOn XPR36; biotinylated FHR3 on NeutrAvidin NLC chip
# Experimental: SPR was used to obtain the binding data for FHR3 receptor ligands compounds (C12), (C13), (C14), (C15) and (C16), either alone or as part of the bifunctional compounds (BFC13), (BFC14), (BFC15), (BFC16) and (BFC17), respectively.
# (§1) SPR Binding experiments were performed on a Proteon XPR36 instrument (Bio-Rad Laboratories). Purified FHR3 with C-terminal biotinylated Avitag was used for the assay. Biotinylated FHR3 was incubated with fivefold molar excess of bifunctional compounds (BFC13), (BFC14), (BFC15), (BFC16) or (BFC17), or compounds (C12), (C13), (C14), (C15) or (C16), and immobilized onto a Neutravidin coated sensor chip. (NLC chip, Bio-Rad Laboratories, Inc). After conditioning the chip by injecting running buffer (20 mM Tris pH7.5, 300 mM NaCl, 25 mM CaCl₂, 2 mM betamercaptoethanol, 2% DMSO and 0.05% Tween-20) at a flow rate of 0.1 mL/min for 240 s, FHR3 was injected at a protein concentration of 0.02 mg/ml in running buffer with fivefold molar excess of bifunctional compound and a flow rate of 0.03 mL/min followed by 4 washes with running buffer with 1 μM of bifunctional compound (0.1 mL/min for 60 seconds each).
row,Binder,Kd [nM]
1,"{CH2CO}-FK([dPEG9 diacid-tri‑GalNAc ASGPR ligand])[NMeA]SLHW[NMeA]RPDRCG-NH2 (other, thioether N-13; reading uncertain) [Bifunctional compound (BFC-14)]",80
2,B1,15
3,B2,13
4,B3,162
5,"{CH2CO}-FR[NMeF]SVNY[Sar]RK([dPEG9 diacid-tri‑GalNAc ASGPR ligand])[Tic]N[NMeF]CG-NH2 (other, thioether N-14; reading uncertain) [Bifunctional compound (BFC-17)]",55
6,B4,8
7,B5,48

# Target: T2, Purified recombinant full length human PCSK9 with C-terminal biotinylated Avitag (human, UniProt Q8NBP7 31-692, biotin on the C-terminal Avitag)
# T2 construct: also called hPCSK9; proprotein convertase subtilisin/kexin type 9; not shown: C-terminal biotinylated Avitag
# T2 sequence (Q8NBP7 31-692): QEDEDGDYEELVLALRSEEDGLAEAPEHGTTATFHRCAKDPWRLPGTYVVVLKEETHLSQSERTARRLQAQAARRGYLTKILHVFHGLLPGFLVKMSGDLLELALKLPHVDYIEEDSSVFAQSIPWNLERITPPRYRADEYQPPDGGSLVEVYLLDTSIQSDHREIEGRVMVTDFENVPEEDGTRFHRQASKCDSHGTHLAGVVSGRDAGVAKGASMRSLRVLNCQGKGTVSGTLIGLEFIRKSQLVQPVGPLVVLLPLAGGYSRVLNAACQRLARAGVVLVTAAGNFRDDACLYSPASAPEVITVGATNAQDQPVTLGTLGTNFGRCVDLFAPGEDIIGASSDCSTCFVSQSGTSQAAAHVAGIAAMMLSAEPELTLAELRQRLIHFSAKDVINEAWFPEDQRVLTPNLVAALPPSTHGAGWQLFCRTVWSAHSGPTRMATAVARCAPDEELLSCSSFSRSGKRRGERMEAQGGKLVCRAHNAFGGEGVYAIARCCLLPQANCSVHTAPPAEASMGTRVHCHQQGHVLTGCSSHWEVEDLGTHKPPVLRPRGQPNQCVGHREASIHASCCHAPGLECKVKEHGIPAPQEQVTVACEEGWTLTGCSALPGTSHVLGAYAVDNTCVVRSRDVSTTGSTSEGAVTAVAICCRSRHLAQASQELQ
# Assay: SPR, ProteOn XPR36; biotinylated human PCSK9 on NeutrAvidin NLC chip
# Experimental: SPR was used to obtain the binding data for PCSK9 receptor ligand compound (C5), either alone or as part of the bifunctional compounds (BFC1), respectively.
# as §1, with “Purified recombinant full length human PCSK9” for “Purified FHR3”, “Biotinylated human PCSK9” for “Biotinylated FHR3”, “bifunctional compound (BFC1)” for “bifunctional compounds (BFC13), (BFC14), (BFC15), (BFC16)”, “or compound (C₅),” for “or (BFC17), or compounds (C12), (C13), (C14), (C15) or (C16),”, “s, PCSK9 protein” for “s, FHR3”
row,Binder,Kd [nM]
1,B6,9.2
2,B7,4.1
3,B8,1.2

# Target: T3, M6PR
# T3 construct: also called mannose-6-phosphate receptor; M6P receptor
# Assay: SPR, no details given; binding is through the mannose phosphonate moiety of the conjugate
row,Binder,Kd [nM]
1,B9,170
2,B7,110
3,B10,480

# Target: T3, M6PR
# Assay: SPR, no details given; binding is through the mannose-6-phosphate moiety of the conjugate
row,Binder,Kd [nM]
1,B6,7.19

# — patent publication US20230398224A1 (Novartis, published 2023)
